Results taken from patent US12460006B2, “Antibodies against integrin alpha 11 beta 1” (Momenta Pharmaceuticals, Inc., priority 2019, dated 2025).

B1: 5D7: rabbit anti-α11β1 mAb; heavy chain SEQ ID NO: 191, light chain SEQ ID NO: 192 (antibody)
heavy: METGLRWLLLVAVLKGVQCQEQLVESGGGLVQPEGSLTLTCKASGFDFSSNAMCWVRQAPGKGLEWIACIYNGDGSTYYASWVNGRFTISKTSSTTVTLQMTSLTAADTATYFCARGLSNWNRDNLWGPGTLVTVSSGQPKAPSVFPLAPCCGDTPSSTVTLGCLVKGYLPEPVTVTWNSGTLTNGVRTFPSVRQSSGLYSLSSVVSVTSSSQPVTCNVAHPATNTKVDKTVAPSTCSKPMCPPPELPGGPSVFIFPPKPKDTLMISRTPEVTCVVVDVSQDDPEVQFTWYINNEQVRTARPPLREQQFNSTIRVVSTLPIAHQDWLRGKEFKCKVHNKALPAPIEKTISKARGQPLEPKVYTMGPPREELSSRSVSLTCMINGFYPSDISVEWEKNGKAEDNYKTTPTVLDSDGSYFLYSKLSVPTSEWQRGDVFTCSVMHEALHNHYTQKSISRSPGK
light: MDTRAPTQLLGLLLLWLPGATFAQVLTQTPSSVSAAVGGTATINCQASQSLYSPKNLAWYQQTPGQPPKLLIYSASKLASGVPSRFKGSGSGTQFTLTISGVQCDDAAIYYCQGEFSCTTAACFAFGGGTEVVVKGDPVAPTVLIFPPAADQVATGTVTIVCVANKYFPDVTVTWEVDGTTQTTGIENSKTPQNSADCTYNLSSTLTLTSTQYNSHKEYTCKVTQGTTSVVQSFNRGDC
B2: 6C7: rabbit anti-α11β1 mAb; heavy chain SEQ ID NO: 185, light chain SEQ ID NO: 186 (antibody)
heavy: METGLRWLLLVAVLKGVQCQQQLEESGGGLVKPGGTLTLTCKASGIDFSSYYYMCWVRQAPGKGLELIVCIYTSSGGTWYASWVNGRLTISRSTSLNTVDLKMTSLTAADTATYFCARGVYSGSSDYPTRLDLWGQGTLVTVSLGQPKAPSVFPLAPCCGDTPSSTVTLGCLVKGYLPEPVTVTWNSGTLTNGVRTFPSVRQSSGLYSLSSVVSVTSSSQPVTCNVAHPATNTKVDKTVAPSTCSKPMCPPPELPGGPSVFIFPPKPKDTLMISRTPEVTCVVVDVSQDDPEVQFTWYINNEQVRTARPPLREQQFNSTIRVVSTLPIAHQDWLRGKEFKCKVHNKALPAPIEKTISKARGQPLEPKVYTMGPPREELSSRSVSLTCMINGFYPSDISVEWEKNGKAEDNYKTTPTVLDSDGSYFLYSKLSVPTSEWQRGDVFTCSVMHEALHNHYTQKSISRSPGK
light: MDTSTSTALLGLLLLWLTGARCAIEMTQSPPSLSASVGETVRIRCLASEDIYSGISWYQQKPEKPPTLLISGASNLESGVPPRFSGGGSGTDYTLTIGGVQAEDVATYYCLGGYSFSSTGLTFGAGTKVEIKRDPVAPSVLLFPPSKEELTTGTATIVCVANKYFPDVTVTWEVDGTTQTTGIENSKTPQNSADCTYNLSSTLTLTSTQYNSHKEYTCKVTQGTTSVVQSFNRGDC
B3: 5A7: rabbit anti-α11β1 mAb; heavy chain SEQ ID NO: 193, light chain SEQ ID NO: 194 (antibody)
heavy: METGLRWLLLVAVLKGVQCQSLEESGGGLVQPEGSLTLACTASGFSFSSYYYICWVRQAPGTGLEWIGCINTGSDDTHYASWLKGRFTFSKASSTTLTLQMTSLTAADTATYFCARSSGSSDDAYDLWGPGTLVTVSSGQPKAPSVFPLAPCCGDTPSSTVTLGCLVKGYLPEPVTVTWNSGTLTNGVRTFPSVRQSSGLYSLSSVVSVTSSSQPVTCNVAHPATNTKVDKTVAPSTCSKPMCPPPELPGGPSVFIFPPKPKDTLMISRTPEVTCVVVDVSQDDPEVQFTWYINNEQVRTARPPLREQQFNSTIRVVSTLPIAHQDWLRGKEFKCKVHNKALPAPIEKTISKARGQPLEPKVYTMGPPREELSSRSVSLTCMINGFYPSDISVEWEKNGKAEDNYKTTPTVLDSDGSYFLYSKLSVPTSEWQRGDVFTCSVMHEALHNHYTQKSISRSPGK
light: MDTRAPTQLLGLLLLWLPGARCDVVMTQTPASVSEPVGGAVTIKCQASQSIGSNLAWYQHKPGQPPKLLIYFASSLASGVSSRFKGGRSGTQFTLTISDLECADAATYYCHCTYYPLSYVTFGGGTEVVVKGDPVAPTVLIFPPAADQVATGTVTIVCVANKYFPDVTVTWEVDGTTQTTGIENSKTPQNSADCTYNLSSTLTLTSTQYNSHKEYTCKVTQGTTSVVQSFNRGDC
B4: 10-L15: mouse anti-α11β1 mAb; VH SEQ ID NO: 119, VL SEQ ID NO: 120 (antibody, V domains shown)
VH: QVQLQQSGPELVRPGASVKMSCKASGYTFTSYWMHWVKQRPGQGLEWIGMIDPSNSETWLNQKFKDKATLNVDKSSNTAYMQLSSLTSEDSAVYYCARYDGYYDYWGQGTTLTVSS
VL: NIVLTQSPASLAVSLGQRATISCRASESVDSYGNSFMHWYQQKPGQPPKLLIYLASNVESGVPARFSGSGSRTDFTLTIDPVEADDAATYYCQQNNEDPWTFGGGTKLEIK
B5: 3B1: rabbit anti-α11β1 mAb; heavy chain SEQ ID NO: 201, light chain SEQ ID NO: 202 (antibody)
heavy: METGLRWLLLVAVLKGVQCQEQLEESGGGLVKPEGSLTLTCKASGFDLSSGYDMCWVRQAPGKGLEWIACIYADYSGSTYYASWVNGRFTISSSTSLNTVDLKMTSLTAADTATYFCARGATGNGGYGYYFNLWGPGTLVTVSSGQPKAPSVFPLAPCCGDTPSSTVTLGCLVKGYLPEPVTVTWNSGTLTNGVRTFPSVRQSSGLYSLSSVVSVTSSSQPVTCNVAHPATNTKVDKTVAPSTCSKPMCPPPELPGGPSVFIFPPKPKDTLMISRTPEVTCVVVDVSQDDPEVQFTWYINNEQVRTARPPLREQQFNSTIRVVSTLPIAHQDWLRGKEFKCKVHNKALPAPIEKTISKARGQPLEPKVYTMGPPREELSSRSVSLTCMINGFYPSDISVEWEKNGKAEDNYKTTPTVLDSDGSYFLYSKLSVPTSEWQRGDVFTCSVMHEALHNHYTQKSISRSPGK
light: MDTRAPTQLLGLLLLWLPGARCADIVMTQTPASVSEPVGGTVTIKCQASQNINSGLAWYQQKPGQPPKLLIYKASTLASGVSSRFKGSGSGTEFTLTISDLECADAATYYCQTYYYSSSSSDNAFGGGTEVVVKGDPVAPTVLIFPPAADQVATGTVTIVCVANKYFPDVTVTWEVDGTTQTTGIENSKTPQNSADCTYNLSSTLTLTSTQYNSHKEYTCKVTQGTTSVVQSFNRGDC

What was measured:
[1] = molecular target: T1, α11β1 expressed on the surface of CHO-K1 cells (Homo sapiens, UniProt Q9UKX5); assay: FACS antibody binding to CHO-K1 cells expressing human α11; conditions: binding Yes/No
T1 construct: expressed in transfected cells; host or cells: CHO-K1
T1 sequence (Q9UKX5 23-1188): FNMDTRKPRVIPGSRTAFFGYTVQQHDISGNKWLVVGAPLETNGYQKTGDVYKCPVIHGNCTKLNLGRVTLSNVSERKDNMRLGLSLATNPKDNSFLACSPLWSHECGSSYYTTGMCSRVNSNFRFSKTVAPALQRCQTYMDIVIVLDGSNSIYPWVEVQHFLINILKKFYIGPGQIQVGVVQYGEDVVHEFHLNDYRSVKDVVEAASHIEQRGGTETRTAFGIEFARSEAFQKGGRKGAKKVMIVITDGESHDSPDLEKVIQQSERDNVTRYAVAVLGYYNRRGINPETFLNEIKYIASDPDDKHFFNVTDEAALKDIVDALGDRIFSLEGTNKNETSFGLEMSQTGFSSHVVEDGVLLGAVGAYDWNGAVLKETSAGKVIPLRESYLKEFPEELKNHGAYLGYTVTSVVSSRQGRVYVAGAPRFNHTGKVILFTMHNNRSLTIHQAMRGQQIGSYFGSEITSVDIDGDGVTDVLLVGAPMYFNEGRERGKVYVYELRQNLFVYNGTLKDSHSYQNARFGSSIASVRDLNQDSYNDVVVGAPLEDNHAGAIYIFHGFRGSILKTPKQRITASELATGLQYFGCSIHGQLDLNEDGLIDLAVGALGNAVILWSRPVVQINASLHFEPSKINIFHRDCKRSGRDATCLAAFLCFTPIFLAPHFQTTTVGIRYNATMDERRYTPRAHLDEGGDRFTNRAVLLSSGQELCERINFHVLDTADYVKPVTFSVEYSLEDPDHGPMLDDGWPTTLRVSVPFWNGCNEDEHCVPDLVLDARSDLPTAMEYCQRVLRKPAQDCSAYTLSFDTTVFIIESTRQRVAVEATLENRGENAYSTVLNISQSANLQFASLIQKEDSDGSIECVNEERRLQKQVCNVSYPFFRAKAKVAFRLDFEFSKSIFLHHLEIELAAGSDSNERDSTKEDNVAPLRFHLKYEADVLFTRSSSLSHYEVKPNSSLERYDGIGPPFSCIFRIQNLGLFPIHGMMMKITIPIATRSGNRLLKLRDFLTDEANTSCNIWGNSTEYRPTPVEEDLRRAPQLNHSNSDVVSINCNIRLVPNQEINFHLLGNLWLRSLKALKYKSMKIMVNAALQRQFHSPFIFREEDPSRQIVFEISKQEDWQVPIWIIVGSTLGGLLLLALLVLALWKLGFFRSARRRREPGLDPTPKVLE
How it was run: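 Wild-type or human α11-transfected CHO-K1 cells (endogenous β1) were incubated with antibody at varied concentrations for 30 min at 4° C, then secondary antibody (1:100) 30 min at 4° C. Cells were PFA-fixed and read by flow cytometry; binding EC50 estimated from FACS data.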

[2] = test system: Human Pulmonary Fibroblasts; assay: Fibroblast-to-Myofibroblasts Transition (FMT), αSMA expression; assay type: cell-based; conditions: Yes/No
How it was run: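 Cells seeded at 20,000/well, serum-starved 24 h, then given TGFβ-1 with or without anti-α11 antibodies for 48 h; polyclonal anti-α11 and isotype IgG served as controls. Fixed, permeabilized cells were stained for αSMA and analysed by flow cytometry (single-cell gMFI). Values are normalized to untreated control as % inhibition.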

[3] = molecular target: mouse α11β1 (Mus musculus, UniProt P61622); assay: ELISA binding to recombinant mouse α11β1; conditions: binding Yes/No
mouse α11β1, sequence (P61622 23-1141 limits assumed): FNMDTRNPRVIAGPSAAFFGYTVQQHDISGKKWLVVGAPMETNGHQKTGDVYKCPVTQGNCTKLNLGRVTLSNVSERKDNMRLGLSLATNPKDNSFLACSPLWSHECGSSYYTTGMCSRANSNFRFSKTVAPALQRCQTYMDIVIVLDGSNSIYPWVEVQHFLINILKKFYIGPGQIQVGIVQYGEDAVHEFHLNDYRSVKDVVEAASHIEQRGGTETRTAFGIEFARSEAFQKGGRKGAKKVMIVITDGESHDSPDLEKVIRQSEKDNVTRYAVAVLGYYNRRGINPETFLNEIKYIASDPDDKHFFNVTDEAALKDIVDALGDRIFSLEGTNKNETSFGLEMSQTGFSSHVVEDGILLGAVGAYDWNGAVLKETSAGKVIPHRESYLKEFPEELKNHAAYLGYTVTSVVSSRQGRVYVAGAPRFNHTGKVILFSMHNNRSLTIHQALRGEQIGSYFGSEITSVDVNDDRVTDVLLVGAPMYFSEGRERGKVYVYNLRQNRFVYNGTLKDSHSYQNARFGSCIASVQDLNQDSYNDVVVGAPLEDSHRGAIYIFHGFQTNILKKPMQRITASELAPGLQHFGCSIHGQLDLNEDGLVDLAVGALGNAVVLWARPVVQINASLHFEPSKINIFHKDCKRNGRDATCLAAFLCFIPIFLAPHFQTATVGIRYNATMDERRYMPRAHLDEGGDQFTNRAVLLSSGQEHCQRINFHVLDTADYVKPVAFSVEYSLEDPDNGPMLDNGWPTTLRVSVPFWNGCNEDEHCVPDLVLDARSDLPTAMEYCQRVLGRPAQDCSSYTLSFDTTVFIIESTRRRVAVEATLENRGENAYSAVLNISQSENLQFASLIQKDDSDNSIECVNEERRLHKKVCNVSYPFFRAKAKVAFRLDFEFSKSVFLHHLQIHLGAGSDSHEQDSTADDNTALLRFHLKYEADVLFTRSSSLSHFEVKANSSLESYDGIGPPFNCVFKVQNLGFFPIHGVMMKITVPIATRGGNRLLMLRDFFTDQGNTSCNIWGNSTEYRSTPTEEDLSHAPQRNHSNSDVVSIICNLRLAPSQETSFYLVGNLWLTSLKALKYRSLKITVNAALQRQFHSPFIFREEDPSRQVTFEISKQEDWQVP
mouse α11β1, sequence (P09055 21-728 partner limits assumed): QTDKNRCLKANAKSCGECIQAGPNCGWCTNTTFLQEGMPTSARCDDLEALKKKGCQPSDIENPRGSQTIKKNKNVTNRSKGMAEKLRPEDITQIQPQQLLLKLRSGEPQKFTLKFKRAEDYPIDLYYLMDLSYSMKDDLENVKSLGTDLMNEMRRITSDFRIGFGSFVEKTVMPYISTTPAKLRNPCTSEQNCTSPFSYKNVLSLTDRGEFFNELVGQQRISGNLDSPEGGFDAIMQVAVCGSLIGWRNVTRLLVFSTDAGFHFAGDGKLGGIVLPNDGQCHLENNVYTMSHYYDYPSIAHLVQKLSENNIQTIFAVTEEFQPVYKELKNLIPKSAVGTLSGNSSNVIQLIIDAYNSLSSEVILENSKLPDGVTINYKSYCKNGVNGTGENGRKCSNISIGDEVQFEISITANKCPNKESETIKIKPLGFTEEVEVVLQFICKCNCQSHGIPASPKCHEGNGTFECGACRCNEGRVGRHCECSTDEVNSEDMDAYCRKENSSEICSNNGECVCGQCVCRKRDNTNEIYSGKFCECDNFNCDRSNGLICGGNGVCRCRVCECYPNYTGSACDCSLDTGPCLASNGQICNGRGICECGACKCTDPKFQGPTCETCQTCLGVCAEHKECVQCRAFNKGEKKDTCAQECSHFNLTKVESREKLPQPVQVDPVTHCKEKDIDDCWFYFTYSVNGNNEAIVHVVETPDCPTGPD
How it was run: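 Antibodies at a range of concentrations bind plate-immobilized recombinant α11β1 (human or mouse, 0.25 μg/mL coating) for 1 h at room temperature.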

Molecule | CHO-K1 FACS [1] | Inhibition of FMT [2] | Murine α11β1 ELISA [3]
B1 | Yes | No | No
B2 | Yes | No | No
B3 | Yes | No | No
B4 | No | No | Yes
B5 | Yes | No | No
